In paper doi:10.1101/2025.07.09.663820 (bioRxiv, 2025):

How the values were obtained:
[1] = target: CHIP13 extracellular domain (residues 33-253) (Lotus japonicus); experiment: SEC
[2] = target: CHIP13 extracellular domain (residues 33-253) (Lotus japonicus, UniProt D3KU00, N-glycans (one on N143))

stoichiometry N [1]	Kd [2] [nM]	Molecule
2		CHIP13 extracellular domain (residues 33-253) (domain or fragment)
	8.1	Nb-aCHIP13 (VHH) VHH: QLQLVESGGGLVQAGGSLRLSCATSGTTFRLNTMGWYRQAPGKQRELVATISRDFKTNYADSVKGRFTISRDNAKHTVDLQMNSLTPEDTAVYYCLVRDQREWYGPEYDNWGRGTQVTVSS
